Laboratory results: the supplement of paper PMC10567573

B1: FAM107A (parent)
chain: LQRVLEHRRRNQLIKKKKEELEAK

Variants of: B1
Assay: protein stability index of a GFP-peptide fusion (GPS, HEK-293T) (PSI 1-6); higher = more stable
Conditions: c terminus: a fixed tail appended
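Note: lentivirally expressed fusions sorted by FACS into six bins by GFP to DsRed ratio, PSI derived from sequencing read proportions per bin multiplied by bin number.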

Row | Variant | protein stability index
1 | LARVLEHRRRNQLIKKKKEELEAK [Q2A] | 2.93
2 | LERVLEHRRRNQLIKKKKEELEAK [Q2E] | 3.89
3 | LIRVLEHRRRNQLIKKKKEELEAK [Q2I] | 1.8
4 | LKRVLEHRRRNQLIKKKKEELEAK [Q2K] | 4.01
5 | LDRVLEHRRRNQLIKKKKEELEAK [Q2D] | 3.25
6 | LPRVLEHRRRNQLIKKKKEELEAK [Q2P] | 3.98
7 | LNRVLEHRRRNQLIKKKKEELEAK [Q2N] | 4.13
8 | LVRVLEHRRRNQLIKKKKEELEAK [Q2V] | 2.41
9 | LFRVLEHRRRNQLIKKKKEELEAK [Q2F] | 2.16
10 | LLRVLEHRRRNQLIKKKKEELEAK [Q2L] | 1.81
11 | LRRVLEHRRRNQLIKKKKEELEAK [Q2R] | 3.67
12 | LGRVLEHRRRNQLIKKKKEELEAK [Q2G] | 4.38
13 | LTRVLEHRRRNQLIKKKKEELEAK [Q2T] | 4.02
14 | LMRVLEHRRRNQLIKKKKEELEAK [Q2M] | 2.78
15 | LWRVLEHRRRNQLIKKKKEELEAK [Q2W] | 2.06
16 | LYRVLEHRRRNQLIKKKKEELEAK [Q2Y] | 2.13
17 | LCRVLEHRRRNQLIKKKKEELEAK [Q2C] | 2.98
18 | LQRVLEMRRRNQLIKKKKEELEAK [H7M] | 3.15
19 | LQRVLEYRRRNQLIKKKKEELEAK [H7Y] | 1.69
20 | LQRVLELRRRNQLIKKKKEELEAK [H7L] | 3.34
21 | LQRVLEFRRRNQLIKKKKEELEAK [H7F] | 3.1
22 | LQRVLEARRRNQLIKKKKEELEAK [H7A] | 3.67
23 | LQRVLECRRRNQLIKKKKEELEAK [H7C] | 3.37
24 | LQRVLERRRRNQLIKKKKEELEAK [H7R] | 3.19

Row | Variant | protein stability index
25 | LQRVLENRRRNQLIKKKKEELEAK [H7N] | 3.67
26 | LQRVLEGRRRNQLIKKKKEELEAK [H7G] | 4.29
27 | LQRVLEKRRRNQLIKKKKEELEAK [H7K] | 1.82
28 | LQRVLEERRRNQLIKKKKEELEAK [H7E] | 3.9
29 | LQRVLEIRRRNQLIKKKKEELEAK [H7I] | 3.06
30 | LQRVLEQRRRNQLIKKKKEELEAK [H7Q] | 3.75
31 | LQRVLEDRRRNQLIKKKKEELEAK [H7D] | 4.04
32 | LQRVLEPRRRNQLIKKKKEELEAK [H7P] | 3.4
33 | LQRVPEHRRRNQLIKKKKEELEAK [L5P] | 4.69
34 | LQRVNEHRRRNQLIKKKKEELEAK [L5N] | 4.27
35 | LQRVAEHRRRNQLIKKKKEELEAK [L5A] | 4.08
36 | LQRVFEHRRRNQLIKKKKEELEAK [L5F] | 3.77
37 | LQRVTEHRRRNQLIKKKKEELEAK [L5T] | 4.38
38 | LQRVQEHRRRNQLIKKKKEELEAK [L5Q] | 3.94
39 | LQRVREHRRRNQLIKKKKEELEAK [L5R] | 4.04
40 | LQRVYEHRRRNQLIKKKKEELEAK [L5Y] | 2.98
41 | LQRVSEHRRRNQLIKKKKEELEAK [L5S] | 4.46
42 | LQRVWEHRRRNQLIKKKKEELEAK [L5W] | 3.71
43 | LQRVEEHRRRNQLIKKKKEELEAK [L5E] | 4.38
44 | LQRVIEHRRRNQLIKKKKEELEAK [L5I] | 3.2
45 | LQRVHEHRRRNQLIKKKKEELEAK [L5H] | 5.17
46 | LQRVCEHRRRNQLIKKKKEELEAK [L5C] | 3.69
47 | LQRVGEHRRRNQLIKKKKEELEAK [L5G] | 4.73
48 | LQRVMEHRRRNQLIKKKKEELEAK [L5M] | 4.19

Row | Variant | protein stability index
49 | IQRVLEHRRRNQLIKKKKEELEAK [L1I] | 2.73
50 | MQRVLEHRRRNQLIKKKKEELEAK [L1M] | 3.64
51 | AQRVLEHRRRNQLIKKKKEELEAK [L1A] | 4.61
52 | EQRVLEHRRRNQLIKKKKEELEAK [L1E] | 4.79
53 | TQRVLEHRRRNQLIKKKKEELEAK [L1T] | 4.72
54 | QQRVLEHRRRNQLIKKKKEELEAK [L1Q] | 5.11
55 | DQRVLEHRRRNQLIKKKKEELEAK [L1D] | 5.36
56 | YQRVLEHRRRNQLIKKKKEELEAK [L1Y] | 3.02
57 | GQRVLEHRRRNQLIKKKKEELEAK [L1G] | 4.37
58 | PQRVLEHRRRNQLIKKKKEELEAK [L1P] | 4.66
59 | FQRVLEHRRRNQLIKKKKEELEAK [L1F] | 3.13
60 | KQRVLEHRRRNQLIKKKKEELEAK [L1K] | 4.85
61 | WQRVLEHRRRNQLIKKKKEELEAK [L1W] | 2.56
62 | LQRVLEHRRFNQLIKKKKEELEAK [R10F] | 3.21
63 | LQRVLEHRRDNQLIKKKKEELEAK [R10D] | 4.77
64 | LQRVLEHRRKNQLIKKKKEELEAK [R10K] | 3.29
65 | LQRVLEHRRHNQLIKKKKEELEAK [R10H] | 3.2
66 | LQRVLEHRRCNQLIKKKKEELEAK [R10C] | 3.14
67 | LQRVLEHRRINQLIKKKKEELEAK [R10I] | 3.3
68 | LQRVLEHRRENQLIKKKKEELEAK [R10E] | 3.75
69 | LQRVLEHRRGNQLIKKKKEELEAK [R10G] | 4.15
70 | LQRVLEHRRLNQLIKKKKEELEAK [R10L] | 3.66
71 | LQRVLEHRRANQLIKKKKEELEAK [R10A] | 4.01
72 | LQRVLEHHRRNQLIKKKKEELEAK [R8H] | 2.89

Row | Variant | protein stability index
73 | LQRVLEHIRRNQLIKKKKEELEAK [R8I] | 2.42
74 | LQRVLEHGRRNQLIKKKKEELEAK [R8G] | 3.39
75 | LQRVLEHVRRNQLIKKKKEELEAK [R8V] | 3.05
76 | LQRVLEHLRRNQLIKKKKEELEAK [R8L] | 2.15
77 | LQRVLEHMRRNQLIKKKKEELEAK [R8M] | 3.38
78 | LQRVLEHTRRNQLIKKKKEELEAK [R8T] | 3.87
79 | LQRVLEHERRNQLIKKKKEELEAK [R8E] | 4.32
80 | LQRVLEHDRRNQLIKKKKEELEAK [R8D] | 4.61
81 | LQRVLEHNRRNQLIKKKKEELEAK [R8N] | 3.53
82 | LQRVLEHARRNQLIKKKKEELEAK [R8A] | 3.43
83 | LQRVLEHWRRNQLIKKKKEELEAK [R8W] | 1.68
84 | LQRVLEHPRRNQLIKKKKEELEAK [R8P] | 3.45
85 | LQRVLEHQRRNQLIKKKKEELEAK [R8Q] | 3.38
86 | LQRVLEHKRRNQLIKKKKEELEAK [R8K] | 3.82
87 | LQRVLEHFRRNQLIKKKKEELEAK [R8F] | 2.1
88 | LQRHLEHRRRNQLIKKKKEELEAK [V4H] | 3.68
89 | LQRKLEHRRRNQLIKKKKEELEAK [V4K] | 4.39
90 | LQRQLEHRRRNQLIKKKKEELEAK [V4Q] | 4.61
91 | LQRWLEHRRRNQLIKKKKEELEAK [V4W] | 2.09
92 | LQRELEHRRRNQLIKKKKEELEAK [V4E] | 4.49
93 | LQRNLEHRRRNQLIKKKKEELEAK [V4N] | 4.87
94 | LQRLLEHRRRNQLIKKKKEELEAK [V4L] | 2.87
